The text below walks through data of patent publication US20180271998A1 (MERRIMACK PHARMACEUTICALS, published 2018).

Experiment [1] has as its target T1, Recombinant, Human EphA2 with C-terminal hexahistidine appended (human, UniProt P29317 25-534).
T1 construct: Captured on anti-His5 sensors; also called his-tagged recombinant, human EphA
Kind of experiment: BLI (Octet Red96), EphA2-His on anti-His5 sensors, doxorubicin liposomes with inserted Fab-PEG-DSPE conjugate at 25 uM phospholipid, slope of association curve 3-20 s relative to Fab 11 liposomes. Here is the method:
(§1) The purified liposomes were assayed for EphA2 binding strength by FortéBIO® Octet® Red96 system (Pall) in PBS at 25 μM liposome phospholipid using anti-His5 sensors coated with recombinant human EphA2 with C-terminal hexahistidine (SEQ ID NO:47). The slope of the association curve from 3-20 sec was determined and compared to the slope observed for liposomes with inserted conjugate of the wild type Fab.
On the technique in general: Biolayer interferometry detects binding as a change in optical thickness at a sensor tip.

Experiment [2] has as its target T1, Recombinant, Human EphA2 with …. Description: BLI (Octet Red 96), EphA2-His on anti-His5 sensors, 4 ug/ml Fab-PEG-DSPE conjugate, slope of association curve 2-10 s relative to Fab 11 conjugate. The method, then: (§2) The Fab-PEG-DSPE conjugates were assayed for EphA2 binding strength using the FortéBIO® Octet® Red 96 system (Pall Corporation) to determine whether conjugation or engineering of the Fab affected binding activity. […] Anti-His5 sensors were first coated with his-tagged recombinant, human EphA (SEQ ID NO:47) at a concentration of 10 μg/ml protein in PBS. The sensors were then incubated in 4 μg/ml of Fab-PEG-DSPE conjugate in PBS. The slope of an association curve between 2-10 seconds was determined and compared across the variants and to the reference conjugate, Fab 11-PEG-PE, which is the anti-EphA2 antibody with wild-type disulfide pairing.

Experiment [3] has the same target. Kind of experiment: BLI (Octet Red 96), EphA2-His on anti-His5 sensors, Fab-PEG-DSPE conjugate. The method, then:
as §2

For experiment [4] the target is unchanged. Description: BLI (Octet Red96), EphA2-His on anti-His5 sensors, liposomes with inserted conjugate. Here is the method: as §1

T1 sequence (P29317 other isoform, or with tags, fused parts or gaps limits assumed): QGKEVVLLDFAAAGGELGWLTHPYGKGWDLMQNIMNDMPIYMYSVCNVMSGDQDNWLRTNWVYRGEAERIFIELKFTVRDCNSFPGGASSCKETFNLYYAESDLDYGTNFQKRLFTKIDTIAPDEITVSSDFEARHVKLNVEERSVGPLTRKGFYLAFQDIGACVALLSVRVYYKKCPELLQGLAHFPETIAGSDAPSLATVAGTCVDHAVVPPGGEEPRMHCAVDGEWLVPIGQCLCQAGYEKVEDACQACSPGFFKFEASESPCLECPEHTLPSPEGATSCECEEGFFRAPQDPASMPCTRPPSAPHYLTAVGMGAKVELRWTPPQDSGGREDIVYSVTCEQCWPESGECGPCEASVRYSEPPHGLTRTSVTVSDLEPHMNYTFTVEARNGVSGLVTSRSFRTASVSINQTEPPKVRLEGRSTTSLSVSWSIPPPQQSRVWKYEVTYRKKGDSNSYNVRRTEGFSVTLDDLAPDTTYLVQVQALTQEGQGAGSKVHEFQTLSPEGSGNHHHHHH

B1: anti-EphA2 Fab 12 (IgG1 G44C, C233S heavy chain; lambda G100C, C214S light chain), Fab-PEG-DSPE conjugate (Fab, V domains shown)
VH: QVQLVQSGGGLVQPGGSLRLSCAASGFTFSSYAMHWVRQAPGKCLEWVTVISPDGHNTYYADSVKGRFTISRDNSKNTLYLQMNSLRAEDTAVYYCARASVGATGPFDIWGQGTLVTVSS
VL: SSELTQPPSVSVAPGQTVTITCQGDSLRSYYASWYQQKPGTAPKLLIYGENNRPSGVPDRFSGSSSGTSASLTITGAQAEDEADYYCNSRDSSGTHLTVFGCGTKLTVLG
modifications: mal-PEG(2000)-DSPE linker conjugated to the C-terminal cysteine of the heavy chain (Cys in DKTHTCAA)
B1: in experiment [1], the “Fab-liposome binding strength, % of control” value was 109 % of control. Besides, the “Binding strength, % of wild type conjugate” value in experiment [2] is 108 % of wild type conjugate. Moreover, the “binding strength compared to wild-type protein conjugate” value in experiment [3] was 75%. In addition, the “EphA2 binding strength compared to control liposomes” value in experiment [4] was above 80%.

B2: anti-EphA2 Fab 16 (IgG1 H172F, F174C, C233S heavy chain; lambda T162L, S174V, S176C, C214S light chain), Fab-PEG-DSPE conjugate (Fab, V domains shown)
VH: QVQLVQSGGGLVQPGGSLRLSCAASGFTFSSYAMHWVRQAPGKGLEWVTVISPDGHNTYYADSVKGRFTISRDNSKNTLYLQMNSLRAEDTAVYYCARASVGATGPFDIWGQGTLVTVSS
VL: SSELTQPPSVSVAPGQTVTITCQGDSLRSYYASWYQQKPGTAPKLLIYGENNRPSGVPDRFSGSSSGTSASLTITGAQAEDEADYYCNSRDSSGTHLTVFGGGTKLTVLG
modifications: mal-PEG(2000)-DSPE linker conjugated to the C-terminal cysteine of the heavy chain (Cys in DKTHTCAA)
As to B2, the “Fab-liposome binding strength, % of control” value in experiment [1] was 89.3 % of control. The “Binding strength, % of wild type conjugate” value in experiment [2] was 85 % of wild type conjugate. Besides, the “binding strength compared to wild-type protein conjugate” value in experiment [3] was found to be 75%. Also, the “EphA2 binding strength compared to control liposomes” value in experiment [4] is above 80%.

B3: anti-EphA2 Fab 13 (IgG1 F174C, C233S heavy chain; lambda S176C, C214S light chain), Fab-PEG-DSPE conjugate (Fab, V domains shown)
VH: QVQLVQSGGGLVQPGGSLRLSCAASGFTFSSYAMHWVRQAPGKGLEWVTVISPDGHNTYYADSVKGRFTISRDNSKNTLYLQMNSLRAEDTAVYYCARASVGATGPFDIWGQGTLVTVSS
VL: SSELTQPPSVSVAPGQTVTITCQGDSLRSYYASWYQQKPGTAPKLLIYGENNRPSGVPDRFSGSSSGTSASLTITGAQAEDEADYYCNSRDSSGTHLTVFGGGTKLTVLG
modifications: mal-PEG(2000)-DSPE linker conjugated to the C-terminal cysteine of the heavy chain (Cys in DKTHTCAA)
In the case of B3, in experiment [1], the “Fab-liposome binding strength, % of control” value was 96.5 % of control. For the same molecule, in experiment [2], the “Binding strength, % of wild type conjugate” value was 96.9 % of wild type conjugate. In experiment [3], the “binding strength compared to wild-type protein conjugate” value is 75%. Also, the “EphA2 binding strength compared to control liposomes” value in experiment [4] was above 80%.

B4: anti-EphA2 Fab 14 (IgG1 G44C, F174C, C233S heavy chain; lambda G100C, S176C, C214S light chain), Fab-PEG-DSPE conjugate (Fab, V domains shown)
VH: QVQLVQSGGGLVQPGGSLRLSCAASGFTFSSYAMHWVRQAPGKCLEWVTVISPDGHNTYYADSVKGRFTISRDNSKNTLYLQMNSLRAEDTAVYYCARASVGATGPFDIWGQGTLVTVSS
VL: SSELTQPPSVSVAPGQTVTITCQGDSLRSYYASWYQQKPGTAPKLLIYGENNRPSGVPDRFSGSSSGTSASLTITGAQAEDEADYYCNSRDSSGTHLTVFGCGTKLTVLG
modifications: mal-PEG(2000)-DSPE linker conjugated to the C-terminal cysteine of the heavy chain (Cys in DKTHTCAA)
Regarding B4, the “Fab-liposome binding strength, % of control” value in experiment [1] is 120 % of control. For the same molecule, the “Binding strength, % of wild type conjugate” value in experiment [2] is 105 % of wild type conjugate. Also, the “binding strength compared to wild-type protein conjugate” value in experiment [3] was determined as 75%. For the same molecule, the “EphA2 binding strength compared to control liposomes” value in experiment [4] was above 80%.

B5: anti-EphA2 Fab 17 (IgG1 G44L, F174C, C233S heavy chain; lambda G100L, S176C, C214S light chain), Fab-PEG-DSPE conjugate (Fab, V domains shown)
VH: QVQLVQSGGGLVQPGGSLRLSCAASGFTFSSYAMHWVRQAPGKLLEWVTVISPDGHNTYYADSVKGRFTISRDNSKNTLYLQMNSLRAEDTAVYYCARASVGATGPFDIWGQGTLVTVSS
VL: SSELTQPPSVSVAPGQTVTITCQGDSLRSYYASWYQQKPGTAPKLLIYGENNRPSGVPDRFSGSSSGTSASLTITGAQAEDEADYYCNSRDSSGTHLTVFGLGTKLTVLG
modifications: mal-PEG(2000)-DSPE linker conjugated to the C-terminal cysteine of the heavy chain (Cys in DKTHTCAA)
In the case of B5, the “Fab-liposome binding strength, % of control” value in experiment [1] is 102 % of control. The “Binding strength, % of wild type conjugate” value in experiment [2] was 89.7 % of wild type conjugate. For the same molecule, the “binding strength compared to wild-type protein conjugate” value in experiment [3] worked out at 75%. Also, the “EphA2 binding strength compared to control liposomes” value in experiment [4] was above 80%.

B6: anti-EphA2 Fab 18 (IgG1 G44L, H172E, F174C, C233S heavy chain; lambda G100L, T162D, S176C, C214S light chain), Fab-PEG-DSPE conjugate (Fab, V domains shown)
VH: QVQLVQSGGGLVQPGGSLRLSCAASGFTFSSYAMHWVRQAPGKLLEWVTVISPDGHNTYYADSVKGRFTISRDNSKNTLYLQMNSLRAEDTAVYYCARASVGATGPFDIWGQGTLVTVSS
VL: SSELTQPPSVSVAPGQTVTITCQGDSLRSYYASWYQQKPGTAPKLLIYGENNRPSGVPDRFSGSSSGTSASLTITGAQAEDEADYYCNSRDSSGTHLTVFGLGTKLTVLG
modifications: mal-PEG(2000)-DSPE linker conjugated to the C-terminal cysteine of the heavy chain (Cys in DKTHTCAA)
Take B6: the “Fab-liposome binding strength, % of control” value in experiment [1] was 99.6 % of control. In addition, the “Binding strength, % of wild type conjugate” value in experiment [2] is 75.5 % of wild type conjugate. The “binding strength compared to wild-type protein conjugate” value in experiment [3] stood at 75%. The “EphA2 binding strength compared to control liposomes” value in experiment [4] is above 80%.

B7: anti-EphA2 Fab 19 (IgG1 G44L, H172F, F174C, C233S heavy chain; lambda G100L, T162L, S174V, S176C, C214S light chain), Fab-PEG-DSPE conjugate (Fab, V domains shown)
VH: QVQLVQSGGGLVQPGGSLRLSCAASGFTFSSYAMHWVRQAPGKLLEWVTVISPDGHNTYYADSVKGRFTISRDNSKNTLYLQMNSLRAEDTAVYYCARASVGATGPFDIWGQGTLVTVSS
VL: SSELTQPPSVSVAPGQTVTITCQGDSLRSYYASWYQQKPGTAPKLLIYGENNRPSGVPDRFSGSSSGTSASLTITGAQAEDEADYYCNSRDSSGTHLTVFGLGTKLTVLG
modifications: mal-PEG(2000)-DSPE linker conjugated to the C-terminal cysteine of the heavy chain (Cys in DKTHTCAA)
As for B7, the “Fab-liposome binding strength, % of control” value in experiment [1] is 83.3 % of control. In addition, the “Binding strength, % of wild type conjugate” value in experiment [2] is 96.8 % of wild type conjugate. For the same molecule, the “binding strength compared to wild-type protein conjugate” value in experiment [3] is 75%. Further, in experiment [4], the “EphA2 binding strength compared to control liposomes” value is above 80%.

B8: anti-EphA2 Fab 15 (IgG1 H172E, F174C, C233S heavy chain; lambda T162D, S176C, C214S light chain), Fab-PEG-DSPE conjugate (Fab, V domains shown)
VH: QVQLVQSGGGLVQPGGSLRLSCAASGFTFSSYAMHWVRQAPGKGLEWVTVISPDGHNTYYADSVKGRFTISRDNSKNTLYLQMNSLRAEDTAVYYCARASVGATGPFDIWGQGTLVTVSS
VL: SSELTQPPSVSVAPGQTVTITCQGDSLRSYYASWYQQKPGTAPKLLIYGENNRPSGVPDRFSGSSSGTSASLTITGAQAEDEADYYCNSRDSSGTHLTVFGGGTKLTVLG
modifications: mal-PEG(2000)-DSPE linker conjugated to the C-terminal cysteine of the heavy chain (Cys in DKTHTCAA)
Take B8: the “Fab-liposome binding strength, % of control” value in experiment [1] is 102 % of control. The “Binding strength, % of wild type conjugate” value in experiment [2] is 86 % of wild type conjugate. The “binding strength compared to wild-type protein conjugate” value in experiment [3] stood at 75%. For the same molecule, in experiment [4], the “EphA2 binding strength compared to control liposomes” value was above 80%.
